B1: rRmY clone SEQ 75 (ssRNA)
RNA: GGGAGAGGAGAGAACGUUCUACAGGUUAAGAGCAGGCUCAGGAAUGGAAGUCGCUGUCGAUCGAUCGAUCGAUG
modifications: 2'-OMe C,U
B2: rRmY clone SEQ 72 (ssRNA)
RNA: GGGAGAGGAGAGAACGUUCUACAAAUGAGAGCAGGCCGAAAAGGAGUCGCUCGCUGUCGAUCGAUCGAUCGAUG
modifications: 2'-OMe C,U
B3: rRmY clone SEQ 81 (ssRNA)
RNA: B2 RNA with A23G
modifications: 2'-OMe C,U
B4: rRmY clone SEQ 74 (ssRNA)
RNA: GGGAGAGGAGAGAACGUUCUACGGUAAAGCAGGCUGACUGAAAGGUUGAAGUCGCUGUCGAUCGAUCGAUCGAUG
modifications: 2'-OMe C,U
B5: rRmY clone SEQ 84 (ssRNA)
RNA: GGGAGAGGAGAGAACGUUCUACGGAAAAAGAUAUGAAAGAAAGGAUUAAGAGACGCUGUCGAUCGAUCGAUCGAUG
modifications: 2'-OMe C,U
B6: rRmY clone SEQ 77 (ssRNA)
RNA: GGGAGAGGAGAGAACGUUCUACAACAAAGCAGGCUCAUAGUAAUAUGGAAGUCGCUGUCGAUCGAUCGAUCGAUG
modifications: 2'-OMe C,U
B7: rRmY clone SEQ 82 (ssRNA)
RNA: GGGAGAGGAGAGAACGUUCUACGAGAGGCAAGAGAGAGUCGCAUAAAAAAGACGCUGUCGAUCGAUCGAUCGAUG
modifications: 2'-OMe C,U
B8: rRmY clone SEQ 79 (ssRNA)
RNA: GGGAGAGGAGAGAACGUUCUACAAAAGGCAGGCUCAGGGGAUCACUGGAAGUCGCUGUCGAUCGAUCGAUCGAUG
modifications: 2'-OMe C,U
B9: rRmY clone SEQ 86 (ssRNA)
RNA: GGGAGAGGAGAGAACGUUCUACUAAUGCAGGCUCAGUUACUACUGGAAGUCGCUGUCGAUCGAUCGAUCGAUG
modifications: 2'-OMe C,U
B10: AMX86-F11 (ssRNA)
RNA: GGGAAAAGCGAAUCAUACACAAGACCAUCGGACGAGGCGGGUCACCUUUUACGCUUUCGAGCUGGCUCCGCCAGAGACCAACCGAGAA
modifications: 2'-F C,U
B11: AMX86-A11 (ssRNA)
RNA: GGGAAAAGCGAAUCAUACACAAGAACGGCUAGGCAUCAAUGGCCAGCAAAAAUAGUCGUGUAAUGCUCCGCCAGAGACCAACCGAGAA
modifications: 2'-F C,U
B12: AMX86-B11 (ssRNA)
RNA: GGGAAAAGCGAAUCAUACACAAGAGUAUCAUUCGGCUGGUGGGAGAAAUCUCUGUAGAUAUAGAGCUCCGCCAGAGACCAACCGAGAA
modifications: 2'-F C,U
B13: AMX91-H8 (ssRNA)
RNA: GGGAAAAGCGAAUCAUACACAAGAACGCAUAGUCGGAUUUACCGAUCAUUCUGUGCCUUCGUGACGCUCCGCCAGAGACCAACCGAGAA
modifications: 2'-F C,U
B14: AMX86-C9 (ssRNA)
RNA: GGGAAAAGCGAAUCAUACACAAGACUCAUGGAUAUGGCCUAGCAGCCGUGGAAGCGGUCAUUCUGCUCCGCCAGAGACCAACCGAGAA
modifications: 2'-F C,U
B15: AMX86-F12 (ssRNA)
RNA: GGGAAAAGCGAAUCAUACACAAGAGUGUUGAAUGAGCGCUGGUGGACAGAUCUUUGGUUACAGAGCUCCGCCAGAGACCAACCGAGAA
modifications: 2'-F C,U
B16: AMX86-C5 (ssRNA)
RNA: GGGAAAAGCGAAUCAUACACAAGAGUUUUAUGUGGGUCCCGAUGAUUAACUUUAUUGGCGCAUUGCUCCGCCAGAGACCAACCGAGAA
modifications: 2'-F C,U
B17: AMX86-A10 (ssRNA)
RNA: GGGAAAAGCGAAUCAUACACAAGAGUAAUGUGGGUCCCGAUGAUUCGCUGUGCGGCGUUUGUAGCUCCGCCAGAGACCAACCGAGAA
modifications: 2'-F C,U
B18: AMX86-E10 (ssRNA)
RNA: GGGAAAAGCGAAUCAUACACAAGAUUGUCUCGGAUUGGUCACUCCCAUUUUUGUUCGCUUAACGGCUCCGCCAGAGACCAACCGAGAA
modifications: 2'-F C,U
B19: AMX86-A7 (ssRNA)
RNA: GGGAAAAGCGAAUCAUACACAAGAUCUCUUUGGCCGACGCAACAAUGCUCUUUUCCGACCUUGCGCUCCGCCAGAGACCAACCGAGAA
modifications: 2'-F C,U
B20: AMX86-B7 (ssRNA)
RNA: GGGAAAAGCGAAUCAUACACAAGAAUGAAUUCCGUCCACGGGCGCCCGAUGAUGUCAGUUUUCGGCUCCGCCAGAGACCAACCGAGAA
modifications: 2'-F C,U
B21: AMX86-B10 (ssRNA)
RNA: GGGAAAAGCGAAUCAUACACAAGAGAACGAGUAUAUUUGCGCUGGCGGAGAAGUCUCUCGAAGGGAGCUCCGCCAGAGACCAACCGAGAA
modifications: 2'-F C,U

Positions count from the first letter of the chain named.

T1 sequence (Q9NPF7 20-189, chain 1 of 2): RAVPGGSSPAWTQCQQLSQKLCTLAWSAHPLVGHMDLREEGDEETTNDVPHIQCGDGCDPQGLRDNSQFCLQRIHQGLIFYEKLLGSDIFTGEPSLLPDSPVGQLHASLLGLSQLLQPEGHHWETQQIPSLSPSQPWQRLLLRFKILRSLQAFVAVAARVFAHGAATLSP
T1 sequence (P29460 23-328, chain 2 of 2): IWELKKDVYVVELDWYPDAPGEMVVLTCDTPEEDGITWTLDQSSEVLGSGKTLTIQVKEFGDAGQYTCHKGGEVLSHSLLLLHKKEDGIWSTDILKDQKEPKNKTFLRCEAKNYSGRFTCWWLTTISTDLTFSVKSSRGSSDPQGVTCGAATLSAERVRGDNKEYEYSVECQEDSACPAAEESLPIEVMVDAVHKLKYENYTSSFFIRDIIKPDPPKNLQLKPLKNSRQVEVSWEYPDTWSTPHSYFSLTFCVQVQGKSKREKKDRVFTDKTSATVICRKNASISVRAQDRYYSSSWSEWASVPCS

The first data set concerns the target T1, IL-23 (human, p19/p40 heterodimer) (Homo sapiens, UniProt Q9NPF7;P29460 SEQ:20-189,SEQ:23-328). Description: filter; DPBS Ca Mg. Conditions: tags: R&D Systems, carrier free. Here is the method:
The selection progress was monitored using the dot blot sandwich filter binding assay as described in Example 1A. The 5′-³²P-labeled pool RNA was refolded at 90° C. for 3 minutes and cooled to room temperature for 10 minutes. Next, pool RNA (trace concentration) was incubated with h-IL-23 DPBS plus 0.1 mg/mL tRNA for 30 minutes at room temperature and then applied to a nitrocellulose and nylon filter sandwich in a dot blot apparatus (Schleicher and Schuell). The percentage of pool RNA bound to the nitrocellulose was calculated and monitored approximately every 3 rounds with a single point screen (+/−250 nM h-IL-23). Pool KD measurements were measured using a titration of h-IL-23 protein (R&D, Minneapolis, Minn.) and the dot blot apparatus as described above.
The rRmY h-IL-23 selection was enriched for h-IL-23 binding vs. the naïve pool after 4 rounds of selection (data not shown). The selection stringency was increased and the selection was continued for 8 more rounds. […] The rGmH selection was enriched over the naïve pool binding at Round 10. […] FIG. 7 is a binding curve of rRmY and rGmH pool selection binding to h-IL-23. The pools were cloned using TOPO TA cloning kit (Invitrogen, Carlsbad, Calif.) and individual sequences were generated and tested for binding. A single point binding screen was initially performed on all crude rRmY clone transcriptions using a 1:200 dilution, +/−200 nM IL-23, plus 0.1 mg/mL competitor tRNA. […] The 10 point screen was performed using zero to 480 nM IL-23 in 3 fold serial dilutions. Binding curves were generated (KaleidaGraph v. 3.51, Synergy Software) and KDs were estimated by fitting the data to the equation: fraction RNA bound=amplitude[h-IL-23]/KD+[h-IL-23]). […] There was one group of 6 duplicate sequences and 4 pairs of 2 duplicate sequences out of the rRmY clones generated. […] Clones were also tested from 48 crude rGmH clone transcriptions at a 1:200 dilution and 0.1 mg/mL tRNA was used as competitor.
For the molecule B1, the dissociation constant (Kd) came out at 479 nM.
On the same count and under the same terms, with B2 the figure was 211 nM.
In the case of B3, the Kd was 303 nM.
As to B4, the Kd came to 257 nM.
Consider B5, for which the Kd turned out to be 602 nM.
As for B6, the Kd worked out at 259 nM.
Still for that read-out and setting: next, B7: 199 nM; B8: 807 nM.
The same measure, in the same setting: next, B9: 219 nM.

The target of a further data set is T1, IL-23 (human, p19/p40 heterodimer). Description: filter; SHMCK, tRNA. Particulars: tags: R&D Systems, carrier free. The method, then:
(§1) Monitoring Progress of rRfY Selection. Dot blot binding assays were performed throughout the selections to monitor the protein binding affinity of the pools. Trace ³²P-labeled RNA was combined with a dilution series of h-IL-23 and incubated at room temperature for 30 minutes in 1×SHMCK (20 mM Hepes, 120 mM NaCl, 5 mM KCl, 1 mM MgCl₂, 1 mM CaCl₂, pH 7.4) plus 0.1 mg/mL tRNA for a final volume of 20 μL. The binding reactions were analyzed by nitrocellulose filtration using a Minifold I dot-blot, 96-well vacuum filtration manifold (Schleicher & Schuell, Keene, N.H.). A three-layer filtration medium was used, consisting (from top to bottom) of Protran nitrocellulose (Schleicher & Schuell), Hybond-P nylon (Amersham Biosciences) and GB002 gel blot paper (Schleicher & Schuell). RNA that is bound to protein is captured on the nitrocellulose filter, whereas the non-protein bound RNA is captured on the nylon filter. The gel blot paper was included simply as a supporting medium for the other filters. Following filtration, the filter layers were separated, dried and exposed on a phosphor screen (Amersham Biosciences, Piscataway, N.J.) and quantified using a Storm 860 Phosphorimager® blot imaging system (Amersham Biosciences).
(§2) When a significant positive ratio of binding of RNA in the presence of h-IL-23 versus in the absence of h-IL-23 was seen, the pools were cloned using a TOPO TA cloning kit (Invitrogen, Carlsbad, Calif.) according to the manufacturer's instructions. For the h-IL-23 and X-IL-23 selections, the Round 8 pool templates were cloned, and 32 individual clones from each selections were assayed in a 1-point dot blot screen (+/−75 nM h-IL-23, as well as a separate screen at +/−75 nM h-IL-12). For the PN-IL-23 selection, the Round 10 pool was cloned and sequenced, and 8 unique clones were assayed for protein binding in a 1-point dot blot screen (+/−200 nM h-IL-23 and a separate screen at +/−200 nM h-IL-12). Subsequently, the Round 10 PN-IL-23 pool was re-cloned for further sequences, as well as the R12 PN-IL-23 pool, and the clones were assayed for protein binding in a 1 point do blot screen (+/−100 nM h-IL-23 or +/−200 nM h-IL-12).
The molecule B10 showed an equilibrium dissociation constant (Kd) of 256 nM.
B11 returned a Kd of 157 nM.
On the same count and under the same terms, with B12 the figure was 180 nM; with B13, 16.6 nM; with B14, 97.9 nM.
B15 registered a Kd of 424 nM.
With B16, the Kd worked out at 80.3 nM.
Still for that read-out and setting: with B17 the figure was 461 nM; with B18, 218 nM.
The same measure, in the same setting: with B19 the figure was 57.7 nM; with B20, 111 nM; with B21, 77.8 nM.

For a further data set, the target named is IL-12 (human, p35/p40 heterodimer) (Homo sapiens, UniProt P29459;P29460 SEQ:57-253,SEQ:23-328). Description: filter; tRNA.
IL-12 (human, p35/p40 heterodimer), sequence (P29459 23-219, chain 1 of 2): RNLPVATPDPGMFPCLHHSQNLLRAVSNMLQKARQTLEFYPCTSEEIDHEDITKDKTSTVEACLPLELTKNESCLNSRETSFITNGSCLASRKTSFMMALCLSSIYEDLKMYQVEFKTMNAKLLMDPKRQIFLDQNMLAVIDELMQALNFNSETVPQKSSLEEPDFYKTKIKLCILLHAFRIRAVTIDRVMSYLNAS
IL-12 (human, p35/p40 heterodimer), sequence (P29460 23-328, chain 2 of 2): as the sequence (P29460 23-328, chain 2 of 2) above
Conditions: not given
The method, then:
as §1, §2
Molecule B10 returned a dissociation constant Kd of 541 nM.
Still for that read-out and setting: next, B11: 182 nM; B12: 5950 nM; B13: 243 nM.
Same read-out and setting: next, B14: 673 nM; B15: 2910 nM; B16: 400 nM.
On the same count and under the same terms, next, B17: 289 nM; B18: 905 nM; B19: 668 nM.
In turn, B20 came in with a Kd of 934 nM.
The same measure, in the same setting: with B21 the figure was 1040 nM.

What is called Kd is the constant that tells how readily two partners part at equilibrium.

These data come from patent publication US20060193821, “Aptamers to the human IL-12 cytokine family and their use as autoimmune disease therapeutics” (published 2006).
